The supplement of paper PMC7877785
± gives the uncertainty stated by the source.

Test: self-splicing fitness, log relative to wild type (ln ratio); higher = more splicing; Tetrahymena group I intron in knt gene, E. coli kanamycin selection, DiMSum; sequences stand for … in CUCUCU…GGAGGGAAAAGUUAUCAGGCAUGCACCUGGUAGCUAGUCUUUAAACCAAUAGAUUGCAUCGGUUUAAAAGGCAAGACCGUCAAAUUGCGGGAAAGGGGUCAACAGCCGUUCAGUACCAAGUCUCAGGGGAAACUUUGAGAUGGCCUUGCAAAGGGUAUGGUAAUAAGCUGACGGACAUGGUCCUAACCACGCAGCCAAGUCCUAAGUCAACAGAUCUUCUGUUGAUAUGGAUGCAGUUCACAGACUAAAUGUCGGUCGGGGAAGAUGUAUUCUUCUCAUAAGAUAUAGUCGGACCUCUCCUUAAUGGGAGCUAGCGGAUGAAGUGAUGCAACACUGGAGCCGCUGGGAACUAAUUUGUAUGCGAAAGUAUAUUGAUUAGUUUUGGAGUACUCGUGGUCG
Procedure, shortened: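 DiMSum derived fitness as the error-weighted combination of fold changes across replicates, kanamycin versus no kanamycin, normalised to wild type. E. coli BL21(DE3) held the library, which randomised all eight P1ex-region intron nucleotides within the knt kanamycin-resistance gene on pET-22b(+). Six replicate transformations grew overnight at 37°C or 30°C on LB agar with or without 25 μg/mL kanamycin, also containing 100 μg/mL carbenicillin, 50 μM IPTG and 0.2% rhamnose, and pooled colonies were amplicon-sequenced on an Illumina HiSeq 2500.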

Sequence	self-splicing fitness (ln) (30 °C)	self-splicing fitness (ln) (37 °C)
AGACAGCAAUAUUACGCCAG	-4.58 ± 0.46	-3.27 ± 0.26
AUCUAGCAAUAUUACGUCCU	-1.07 ± 0.078	0.137 ± 0.096
AUGCAGCAAUAUUACGGGGA	-2.64 ± 0.16	-2.26 ± 0.18
AUACAGCAAUAUUACGCUGG	-2.29 ± 0.13	-2.76 ± 0.25
ACCUAGCAAUAUUACGUACU	-0.755 ± 0.052	-0.159 ± 0.062
UAUCAGCAAUAUUACGAGAA	-1.22 ± 0.16	-0.559 ± 0.13
AAUCAGCAAUAUUACGCGGC	-1.53 ± 0.26	0.179 ± 0.16
GACGAGCAAUAUUACGUUGA	-2.36 ± 0.22	-1.5 ± 0.17
CGACAGCAAUAUUACGGCGG	-0.174 ± 0.078	0.335 ± 0.11
CACAAGCAAUAUUACGGUGA	-3.09 ± 0.12	-0.931 ± 0.085
UACAAGCAAUAUUACGCCAC	-2.95 ± 0.27	
CGCAAGCAAUAUUACGACGC	-3.59 ± 0.2	-2.03 ± 0.16
AGCUAGCAAUAUUACGAAGG	-4.22 ± 0.39	-1.82 ± 0.26
GUUCAGCAAUAUUACGCAGG	-1.35 ± 0.14	-1.28 ± 0.17
UGAGAGCAAUAUUACGGAAA		-1.92 ± 0.39
UCACAGCAAUAUUACGCAGC	-3.29 ± 0.2	-2.62 ± 0.25
UGUUAGCAAUAUUACGUUUC	-3.91 ± 0.46	-2.06 ± 0.33
GUACAGCAAUAUUACGCCUC	-0.924 ± 0.14	-0.219 ± 0.16
AGAGAGCAAUAUUACGGCAC		-1.68 ± 0.18
GAGGAGCAAUAUUACGGAUA	-3.62 ± 0.28	-2.33 ± 0.37
CGCCAGCAAUAUUACGCUAC	-3.74 ± 0.36	-2.58 ± 0.28
AUCAAGCAAUAUUACGAGAG	-3.32 ± 0.16	-1.76 ± 0.11
AAUUAGCAAUAUUACGCUUC	-2.91 ± 0.39	-3.71 ± 0.39
CGGCAGCAAUAUUACGUGUG	-1.09 ± 0.036	-0.654 ± 0.05
GCCUAGCAAUAUUACGAAUG	-2.57 ± 0.18	-2.43 ± 0.25
AAGCAGCAAUAUUACGAGUU	-1.95 ± 0.077	-1.07 ± 0.086

Sequence	self-splicing fitness (ln) (30 °C)	self-splicing fitness (ln) (37 °C)
CAUCAGCAAUAUUACGGGGU	-4.39 ± 0.25	-2.11 ± 0.25
CAUAAGCAAUAUUACGCGAC	-3.45 ± 0.33	-3.11 ± 0.4
UACAAGCAAUAUUACGGACU	-1.22 ± 0.079	-0.00357 ± 0.085
UCAUAGCAAUAUUACGGAAG		-2.19 ± 0.33
UACAAGCAAUAUUACGUUUC	-2.55 ± 0.2	-1.72 ± 0.2
CGAAAGCAAUAUUACGCUAG	-2.3 ± 0.12	-1.57 ± 0.12
AUUCAGCAAUAUUACGGCGG	-1.77 ± 0.1	-1.77 ± 0.11
AAAGAGCAAUAUUACGUACG	-3.6 ± 0.44	-1.9 ± 0.41
CUUCAGCAAUAUUACGCCCA	-1.53 ± 0.31	-0.354 ± 0.26
CGAUAGCAAUAUUACGCAGG	-1.6 ± 0.092	-1.25 ± 0.1
CCUCAGCAAUAUUACGCUUG	-4.31 ± 0.37	-2.52 ± 0.23
UAAGAGCAAUAUUACGACGU	-2.32 ± 0.33	-1.88 ± 0.39
ACGAAGCAAUAUUACGCAUC	-3.54 ± 0.18	-3.42 ± 0.3
GGAUAGCAAUAUUACGGUCU	-3.86 ± 0.4	-1.99 ± 0.18
ACGUAGCAAUAUUACGUCGG	-3.32 ± 0.33	-2.07 ± 0.2
CUUUAGCAAUAUUACGAAUA	-3.48 ± 0.48	
AUUAAGCAAUAUUACGGCUC	-0.973 ± 0.16	0.244 ± 0.17
GUUGAGCAAUAUUACGUGAG	-1.93 ± 0.15	-1.42 ± 0.19
UAGCAGCAAUAUUACGGAGU	-3.64 ± 0.18	-2.78 ± 0.15
GUGCAGCAAUAUUACGAAGA	-2.35 ± 0.46	-0.855 ± 0.15
CAUUAGCAAUAUUACGAGCA	-3.42 ± 0.23	-2.28 ± 0.14
CUCCAGCAAUAUUACGCGGU	-4.01 ± 0.23	-3.96 ± 0.25
UCAGAGCAAUAUUACGAUGC	-3.8 ± 0.32	-1.68 ± 0.24
GCUUAGCAAUAUUACGUCUA	-1.96 ± 0.26	-0.873 ± 0.2
CAUUAGCAAUAUUACGCAUA	-2.03 ± 0.18	-1.06 ± 0.15
CAUAAGCAAUAUUACGGAAU	-4.25 ± 0.23	-2.43 ± 0.18

Sequence	self-splicing fitness (ln) (30 °C)	self-splicing fitness (ln) (37 °C)
UGGGAGCAAUAUUACGUUAU	-3.22 ± 0.27	-1.86 ± 0.34
CUAGAGCAAUAUUACGUGAU	-1.85 ± 0.09	-0.696 ± 0.1
GCUUAGCAAUAUUACGACAA	-1.02 ± 0.14	-0.462 ± 0.19
AGCUAGCAAUAUUACGCCUC	-2.07 ± 0.34	-1.46 ± 0.37
AGGUAGCAAUAUUACGCGGC	-4.05 ± 0.044	-2.93 ± 0.048
UCGAAGCAAUAUUACGAUCG	-1.25 ± 0.099	-0.609 ± 0.12
UUUGAGCAAUAUUACGUCCC	-2.9 ± 0.22	-2.15 ± 0.33
UCUCAGCAAUAUUACGCUGC	-3.83 ± 0.21	-2.06 ± 0.17
CCAUAGCAAUAUUACGUCAG	-1.74 ± 0.13	-1.61 ± 0.15
CUCCAGCAAUAUUACGCAGG	-3.95 ± 0.21	-2.83 ± 0.27
UUUGAGCAAUAUUACGUGCG		-1.29 ± 0.25
GGCGAGCAAUAUUACGACUA	-0.848 ± 0.12	-0.00409 ± 0.11
GACAAGCAAUAUUACGAGUC	-1.85 ± 0.15	-2.72 ± 0.28
AUAAAGCAAUAUUACGGAUA	-1.7 ± 0.11	-0.75 ± 0.11
UUCAAGCAAUAUUACGCAGU	-3.44 ± 0.27	-3.62 ± 0.42
UGAAAGCAAUAUUACGCGAG	-1.63 ± 0.11	-0.0143 ± 0.1
AUCCAGCAAUAUUACGCUGG	-3.65 ± 0.19	-1.7 ± 0.16
CGUUAGCAAUAUUACGGUGA	-2.76 ± 0.21	-0.883 ± 0.16
GUACAGCAAUAUUACGAAAG	-3.47 ± 0.1	-1.04 ± 0.092
CUAGAGCAAUAUUACGUAGG	-1.04 ± 0.1	1 ± 0.14
AUUUAGCAAUAUUACGAUGC	-1.98 ± 0.23	-0.497 ± 0.21
UUAGAGCAAUAUUACGCUUU	-3.62 ± 0.37	-2.02 ± 0.32
UAUCAGCAAUAUUACGACUG	0.153 ± 0.078	0.512 ± 0.13
GACCAGCAAUAUUACGCGCU	-1.68 ± 0.12	-0.412 ± 0.12
AGUGAGCAAUAUUACGUAGG	-4.29 ± 0.46	
